According to patent US20160109449A1 (JULIUS MAXIMILIANS UNIVERSITAET WUERZBURG, published 2016):

Columns and labels:
Assay in all cases: peptide array on glass slide, fluorescent secondary antibody
[1] = molecular target: IsaA oligopeptide SEQ ID NO: 58 (Staphylococcus aureus)
[2] = molecular target: IsaA oligopeptide SEQ ID NO: 17 (Staphylococcus aureus)
[3] = molecular target: IsaA oligopeptide SEQ ID NO: 64 (Staphylococcus aureus)
[4] = molecular target: IsaA oligopeptide SEQ ID NO: 39 (Staphylococcus aureus)
[5] = molecular target: IsaA oligopeptide SEQ ID NO: 44 (Staphylococcus aureus)
[6] = molecular target: IsaA oligopeptide SEQ ID NO: 59 (Staphylococcus aureus)
[7] = molecular target: IsaA oligopeptide SEQ ID NO: 53 (Staphylococcus aureus)
[8] = molecular target: IsaA oligopeptide SEQ ID NO: 22 (Staphylococcus aureus)

control antibodies (peptide array) (antibody)
Binding (fluorescence intensity) [1]: 46.3 | Binding (fluorescence intensity) [2]: 48 | Binding (fluorescence intensity) [3]: 42 | Binding (fluorescence intensity) [4]: 109 | Binding (fluorescence intensity) [5]: 114 | Binding (fluorescence intensity) [6]: 132 | Binding (fluorescence intensity) [7]: 70.3 | Binding (fluorescence intensity) [8]: 26.3
